We go through 2 substances from patent US20230340112A1.

The target of test [1] is mDC cell surface SIRPα (human) (UniProt P78324). The experiment in a line: FACS binding; Donor #296; isotype control, flat curve. For orientation: Flow cytometry measures light scatter and fluorescence of single cells or particles in a stream.
For test [2] the target is unchanged. As to the kind of experiment: FACS binding; Donor #298; isotype control, flat curve.
Test [3] deals with cell-surface SIRPα (mDC) (human) (UniProt P78324). The experiment in a line: FACS blocking of CD47/SIRPα; Donor #296; isotype control, flat curve.
For test [4] the target is unchanged. The experiment in a line: FACS blocking of CD47/SIRPα; Donor #298; isotype control, flat curve.
Test [5] has as its target human SIRPα expressed on the surface of human monocyte-derived dendritic cells (human) (UniProt P78324). The experiment in a line: flow cytometry on human monocyte-derived dendritic cells.

cell-surface SIRPα (mDC) (human), sequence (P78324 31-504): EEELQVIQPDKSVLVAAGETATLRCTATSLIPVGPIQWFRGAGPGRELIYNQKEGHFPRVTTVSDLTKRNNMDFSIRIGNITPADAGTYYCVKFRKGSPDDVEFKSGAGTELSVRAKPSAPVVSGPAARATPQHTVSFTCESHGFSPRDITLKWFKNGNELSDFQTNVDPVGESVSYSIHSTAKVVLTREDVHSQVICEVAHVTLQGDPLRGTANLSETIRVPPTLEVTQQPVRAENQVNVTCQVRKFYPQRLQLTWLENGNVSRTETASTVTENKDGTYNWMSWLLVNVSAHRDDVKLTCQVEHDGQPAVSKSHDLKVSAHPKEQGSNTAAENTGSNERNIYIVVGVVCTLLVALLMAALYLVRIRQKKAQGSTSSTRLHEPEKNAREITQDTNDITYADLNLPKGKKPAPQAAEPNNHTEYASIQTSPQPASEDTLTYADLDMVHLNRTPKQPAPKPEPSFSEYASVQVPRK
mDC cell surface SIRPα (human), sequence (P78324 31-504): as above
human SIRPα expressed on the surface of human monocyte-derived dendritic cells (human), sequence (P78324 31-504): as above

For IgG4 isotype, the EC50 in test [1] turned out to be 38600 pM; in test [2] it was 25 pM. Moreover, the IC50 came out at 424 pM in test [3] and 17.7 pM in test [4].
Turning to IgG4 isotype (antibody), in test [5], the Kd was 2.1 pM.

Usually EC50 stands for the concentration needed to bring the measured effect to its halfway point. In general, IC50 refers to the concentration at which inhibition is half-maximal. What is called Kd is the concentration at which binding is half-saturated. High values mean lower affinity, low ones higher affinity.
